Data on two molecules can be found in publication PMC7748022.

Data set [1] deals with T1, GST-PIF4 (UniProt Q8W2F3 1-430).
T1 sequence: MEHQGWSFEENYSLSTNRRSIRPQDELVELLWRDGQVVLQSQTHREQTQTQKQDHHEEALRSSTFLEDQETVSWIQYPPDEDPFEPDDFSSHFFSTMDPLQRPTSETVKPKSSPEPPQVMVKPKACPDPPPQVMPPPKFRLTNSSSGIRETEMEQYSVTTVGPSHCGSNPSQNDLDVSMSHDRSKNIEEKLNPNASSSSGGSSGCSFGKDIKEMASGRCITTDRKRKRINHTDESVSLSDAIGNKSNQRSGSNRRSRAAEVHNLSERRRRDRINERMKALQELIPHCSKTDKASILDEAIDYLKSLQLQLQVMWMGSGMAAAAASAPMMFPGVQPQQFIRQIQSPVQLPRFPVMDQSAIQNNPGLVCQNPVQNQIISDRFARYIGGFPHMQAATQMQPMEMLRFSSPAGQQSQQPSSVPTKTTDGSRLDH
The data set is described as follows: EMSA. For orientation: A gel shift assay detects complexes by their altered migration in electrophoresis.

Data set [2] deals with T1, GST-PIF4. The data set is described as follows: competition.

Substitutions are numbered along the chain they refer to.

B1: PIF4 promoter probe (G-box) (dsDNA)
DNA 1: ATTCCAACACAATGTCCCAGAACTTGCCACGTGTCGTTCATTTCAAAAGATTGCAGTACT
DNA 2: AGTACTGCAATCTTTTGAAATGAACGACACGTGGCAAGTTCTGGGACATTGTGTTGGAAT
For B1, the binding result with GST-PIF4 [1] is “binds”.

B2: PIF4-MU probe (CACGTG to AACGTG) (dsDNA)
DNA 1: B1 DNA 1 with C28A
DNA 2: B1 DNA 2 with G33T
On to B2, for which, in the data set with GST-PIF4 [2], the binding result is given as “no binding”.
